Experimental data published in the supplement of paper PMC9170038.

System: MS2 coat protein
Test: apparent KD of MS2 coat protein; designed switch direction (-1 OFF switch, 1 ON switch): -1; higher = weaker reporter binding
Procedure, shortened: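 Each step of the titration lasted 0.8–1.5 h at the lowest concentration and 10–20 min at the highest. The protein, SNAP-549-labelled MS2 coat protein, went from 0.7 or 1.5 nM doubling to 3 µM over RNA switches transcribed on Illumina chips by stalled E. coli RNA polymerase. Normalised cluster fluorescence was curve-fitted, and the per-design median over clusters is given as apparent KD.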

[1] = Eterna round: R95, input ligand: FMN 200 uM
[2] = Eterna round: R95, input ligand: microRNA oligo, concentration not stated
[3] = Eterna round: R95, input ligand: none
[4] = input ligand: microRNA oligo, concentration not stated

Row | Sequence | apparent KD of MS2 coat protein [1] [nM] | apparent KD of MS2 coat protein [2] [nM] | apparent KD of MS2 coat protein [3] [nM] | apparent KD of MS2 coat protein (input ligand: FMN 200 uM) [nM] | apparent KD of MS2 coat protein [4] [nM] | apparent KD of MS2 coat protein (input ligand: none) [nM]
1 | GGUCAAGAGCAGAUCCGCGCUGCUAUUGACCGCUCAUUUACAUGAGGAUCACCCAUGUUUUUUGCUCGUCUUAUUAC [Biinedmaa] (puzzle: Sensor v3, turn-off variant 2) | 19.4 | 77.7 | 18.7 |  |  | 
2 | GGUCAGACGGUAGGAUAUCCAUAUCGAGUGACCCUUUUAUAACAUGAGGAUCACCCAUGUCGGUGGGAGAAGGGCCGUACGGCG [salish99_ExNG02_R04_003] (Eterna round: R96, puzzle: Exclusion NG 2) |  |  |  | 445 | 304 | 401
3 | GGUCAUAGGUAAGGAUAUGAAGAUCUGGUGGUGACAUGAGGAUCACCCAUGUGAAAACGAUGAGAUCAGAAGGUACAAUAUGAA [AK ExNG2-4.1] (Eterna round: R96, puzzle: Exclusion NG 2) |  |  |  | 72.7 | 49.1 | 86.4
4 | GGUCCACAUGAGGAUCACCCAUGUAAUAACAUGCAGCGCAGGAAGGAUAUGCCCGAACAAAGCCAGCAGAAGGUCCAUUAACAU [Eternabot solution 7] (Eterna round: R96, puzzle: Exclusion NG 3) |  |  |  | 166 | 84.5 | 128
5 | GGUCCACGAGGAUAUCGAUUUUAGUACAUGAGGAUCACCCAUGUUGUCCAGGUUUCGAUUCGAGAAGGCGUGGGCC [LRO-Ex5-03] (puzzle: Exclusion 5) |  | 20.3 |  |  |  | 
6 | GGUCGUUUAGUGAGGAUAUGCAGCGUCAUAGCGCAGCAGAAGGCACAUGAGGAUCACCCAUGUCCUCCCAAAAG [Eternabot (L1) Solution 9] (Eterna round: R97, puzzle: Brourd's mod of Exclusion 4) |  |  |  | 253 |  | 18.9
7 | GGUCUACAUGAGGAUCACCCAUGUAAGGAUAUCGUCACUGGAGCCUCGGCUCCAGUGACGAGAAGGUGCAUAAU [E1/11-A2] (Eterna round: R97, puzzle: Exclusion 1) |  |  |  | 48.9 |  | 36.6
8 | GGUCUGCGAGGAUAUACAUGAGGAUCACCCAUGUGCGAGUUACUAGUGAGGUCGGUUGGUAGAAGGCGCGGACG [JL-ex3-2.09 salish99 mod] (puzzle: Exclusion 3) | 69.3 | 52.3 | 32.9 |  |  | 
9 | GGUGAAGCAGGAUAUGUGCUGGCAUACAUGAGGAUCACCCAUGUCAUGUAGGAACCACGUAUAGAAGGGCUUCACC [Exclusion 5 (FMN-MS2 slide v.10)] (Eterna round: R97, puzzle: Exclusion 5) |  |  |  | 50.7 |  | 28.1
10 | GGUGAGCGAGGAUAUACAUGAGGAUCACCCAUGUGAGAGAAUAAAGUGAGGAAGAAAAGUAGAAGGCGCGAACG [Mat - Exclusion 3 - Mod of Salish D47] (puzzle: Exclusion 3) | 91.4 | 37.8 | 11.9 |  |  | 
11 | GGUGAGCUAGGAUAUGCUUUGGGAACGCAUUCCUUCGAUAAACUUGAGGAUCACCCAAGUAGAAGGAGCUUGCC [salish99_ex2_r4_029] (Eterna round: R97, puzzle: Exclusion 2) |  |  |  | 158 |  | 34
12 | GGUGAGCUAGGAUAUGCUUUGGGCUCGCAUUCCUUCGAUAAACUUGAGGAUCACCCAAGUAGAAGGAGCUUGCC [salish99_ex2_r4_032] (Eterna round: R97, puzzle: Exclusion 2) |  |  |  | 23.3 |  | 15.8
13 | GGUGCGUUUGUGAGGAUAUGCUGGUCCUUGGAUCCGCAGAAGGCACAUGAGGAUCACCCAUGUGGUGUCGUACC [salish99_Bmod_Ex4_034] (puzzle: Brourd's mod of Exclusion 4) |  | 199 |  |  |  | 
14 | GGUGUACUAGUCAGGAUAUGAUUAAUACCAAAGAAUCAGAAGGGACAUGAGGAUCACCCAUGUAAAGAAGGAGA [BmEX4 A.23] (Eterna round: R97, puzzle: Brourd's mod of Exclusion 4) |  |  |  | 158 |  | 32.5
15 | GGUGUGCUAGGAUAUGCUUUGGGCUCGCUUUCCUUCGUUUUACUUGAGGAUCACCCAAGUAGAAGGAGCUUGCC [salish99_ex2_r4_037] (Eterna round: R97, puzzle: Exclusion 2) |  |  |  | 13.3 |  | 11.6
16 | GGUGUGCUAGGAUAUGCUUUGGGCUCGCUUUCCUUCGUUUUACUUGAGGAUCACCCAAGUAGAAGGUGCUUGCC [salish99_ex2_r4_038] (Eterna round: R97, puzzle: Exclusion 2) |  |  |  | 13 |  | 13
17 | GGUUAUUGCAAGGAUAUGCUUUUUUUUUAUAUUGCAGAAGGUGCAACAUGAGGAUCACCCAUGUUGGAGGGUUU [JR_E6_Sub022] (puzzle: Exclusion 6) |  | 26 |  |  |  | 

Row | Sequence | apparent KD of MS2 coat protein [1] [nM] | apparent KD of MS2 coat protein [2] [nM] | apparent KD of MS2 coat protein [3] [nM] | apparent KD of MS2 coat protein (input ligand: FMN 200 uM) [nM] | apparent KD of MS2 coat protein [4] [nM] | apparent KD of MS2 coat protein (input ligand: none) [nM]
18 | GGUUCGAGAGUAAGGAUAUCGGUCUGCGCGAGUGACGAGAAGGUACAUGAGGAUCACCCAUGUCGAGGGAUCAC [Eternabot (L2) Solution 23] (Eterna round: R97, puzzle: Brourd's mod of Exclusion 4) |  |  |  | 35.8 |  | 34.9
19 | GGUUCGUGAGGAUAUGUGGCUUCGAUCGUGCGAAGAAGGCUACAGAAGGCACAUGAGGAUCACCCAUGUUCGUC [salish99_ex4_r4_228] (Eterna round: R97, puzzle: Exclusion 4) |  |  |  | 241 |  | 62.1
20 | GGUUGACAUGAGGAUCACCCAUGUGAGGAUAUGCGAGAGAAAAAAGUGAGGAAGGUUUGCAGAAGGCGCUGUCG [salish99-ex1_r3_008] (puzzle: Exclusion 1) | 50.2 | 115 | 81.2 |  |  | 
21 | GGUUGACAUGAGGAUCACCCAUGUGAGGAUAUGCGAGAGAAAAAAGUGAGGAAGUUAAGCAGAAGGCGCUGUCG [salish99-ex1_r3_005] (puzzle: Exclusion 1) | 89.5 | 78 | 307 |  |  | 
22 | GGUUGGCGAGGAUAUACAUGAGGAUCACCCAUGUGAGAGAAAAAAGUGAGCAAGAAAAGUAGAAGGCGCUGACG [salish99_ex3_r3_030] (Eterna round: R96, puzzle: Exclusion 3) |  |  |  | 209 | 110 | 59.9
23 | GGUUGGCGAGGAUAUACAUGAGGAUCACCCAUGUGAGAGAAAAAAGUGAGCAAGAAAAGUAGAAGGCGCUGACG [salish99_ex3_r3_030] (puzzle: Exclusion 3) | 627 | 75.7 | 27.5 |  |  | 
24 | GGUUGGCGAGGAUAUACAUGAGGAUCACCCAUGUGAGAGAAAGAAGUGAGGAAGAAUAGUAGAAGGCGCUGACG [salish99_ex3_r3_056] (puzzle: Exclusion 3) | 746 | 56.1 | 69.1 |  |  | 
25 | GGUUGGCGAGGAUAUACAUGAGGAUCACCCAUGUGAGAGAGAAAAGUGAGAACGAAAAGUAGAAGGCGCUGACG [salish99_ex3_r3_061] (puzzle: Exclusion 3) | 53.5 | 65.6 | 96.2 |  |  | 
26 | GGUUGGCGAGGAUAUACAUGAGGAUCACCCAUGUGAGAUAAAAAAGUGAGGAAGAAAAGUAGAAGGCGCUGACG [salish99_ex3_r3_010] (puzzle: Exclusion 3) | 1140 | 71.5 | 85.1 |  |  | 
27 | GGUUGGCGAGGAUAUACAUGAGGAUCACCCAUGUGAGCGAAAAAAGUGAGGAAGAAAAGUAGAAGGCGCUGACG [salish99_ex3_r3_020] (puzzle: Exclusion 3) | 236 | 40.1 | 63.5 |  |  | 
28 | GGUUUACAAGGAUAUACAAAGGUCUUGUGAUCUGUGCGAGGACAUGAGGAUCACCCAUGUAGAAGGUGUCUGCU [Eternabot (L2) Solution 77] (Eterna round: R97, puzzle: Exclusion 2) |  |  |  | 193 |  | 114
29 | GGUUUUCUUUUCCUUUCUUACAUGAGGAUCACCCAUGUUUCUUGUCGUGCUCGCGUUGCUCGUCUGUCUGUCUGUUG [salish99_TOv1_r3_076(!)] (puzzle: Sensor v3, turn-off variant 1) | 45.9 | 35.7 | 56.9 |  |  | 
30 | GUAAAACAUGUAGGAUAUGCGUGGCGAAGCUAUGCAGAAGGACAUGAGGAUCACCCAUGUUAAAGCGUCUGCGUACAGAUGCAA [Mat - Exclusion NG 1 - Mod of JL - D94] (Eterna round: R96, puzzle: Exclusion NG 1) |  |  |  | 279 | 19.8 | 29.2
31 | GUAAAGUGAGGAUAUGGUAAUUUAAUUAUUAAUUAAUUAAUCCAGAAGGCACAUGAGGAUCACCCAUGUAAAUG [Mat - Exclusion 4 - D90] (puzzle: Exclusion 4) |  | 31.6 |  |  |  | 
32 | GUAACAACUAGAGGAUAUCAGCACGUGUUGUGCUGAGAAGGCUAGAGUUACAUGAGGAUCACCCAUGUCUAGAGAUCAUUAAUU [ENG1/13-A4] (Eterna round: R96, puzzle: Exclusion NG 1) |  |  |  | 120 | 29.5 | 49.1
33 | GUAACAACUAGAGGAUAUCAGCACGUUUAGUGCUGAGAAGGCUAGAGUUACAUGAGGAUCACCCAUGUCUAGAGAUCAUUAAUU [ENG1/13-A2] (Eterna round: R96, puzzle: Exclusion NG 1) |  |  |  | 177 | 66.3 | 83.8
